The test system of experiment [1] is activin-A (βA) mRNA. Nature of the experiment: Northern blot of activin-A (βA) mRNA in tumors of inh-KO mice. Conditions: increase over WT controls, FIG. 5A. The class given is in vivo, mouse. Here is the method: (§1) 12-week-old female and 8-week-old male inh-KO mice with fully established ovarian or testicular tumors received a single injection of PBS or sActRIIB (30 mg/kg, SC). As a control, age-matched wild-type littermates received a single injection of PBS. Ovarian and testicular organ weights were determined by necropsy 14 days after the injection.
(§2) Total RNA was isolated from individual tissue samples after homogenization in Trizol (Invitrogen). A pool of 10 μg RNA for each group containing equal amounts of total RNA isolated from individual animals was subjected to Northern blot analysis. The northern probes used for βA and Ang-2 were generated by using RT-PCR (Phusion, Biolabs). βA primer set: 5′-CCCTTGCTTTGGCTGAGAGGA-3′ and 5′-TC ACA GGT CGT CGT AGG TCG-3′; Ang-2 primer set: 5′-TGT GCC GGG GAG AAG AG and 5′-TACAGTAGTGGGTTGAGGTTC-3′. To normalize the expression, northern blot membranes were re-probed with β-actin.

The test system of experiment [2] is Ang-2 mRNA. Nature of the experiment: Northern blot of Ang-2 mRNA in gonadal tumors of inh-KO mice. The class given is in vivo, mouse. Conditions: ovarian and testicular tumors of inh-KO mice; FIG. 8C. The method, then: as §1, §2
Experiment [3] relates to endoglin. Nature of the experiment: Western blot of endoglin in ovarian tumors of inh-KO mice. The class given is in vivo, mouse. The settings on record: FIG. 8D. Here is the method: as §1
(§3) Protein extracts were prepared from cell cultures or tissues in T-PER tissue protein extraction reagent (Pierce) containing a mixture of protease inhibitors (Roche). A pool of 50 μg total protein for each group containing equal amounts of protein extract isolated from individual animals was separated by NuPAGE 4-12% Bis-Tris gel (Invitrogen) and transferred to PVDF. The membranes were probed with primary antibodies against total Smad2, p-Smad2 or E-cadherin (1:1000; Cell Signaling), endoglin, osteopontin (1:500; R&D Systems), IGFBP-1, IGFBP-2 (1:500; Abcam) followed by HRP-conjugated secondary antibody (1:2000; Cell Signaling). The membranes were stripped and re-probed with antibody against α-tubulin (1:1000; Cell Signaling).
In general terms: In western blotting, separated proteins are transferred to a membrane and probed.

The test system of experiment [4] is osteopontin. In words: Western blot of osteopontin in ovarian tumors of inh-KO mice. The class given is in vivo, mouse. Conditions: FIG. 8D. The method, then: as §1, §3
Experiment [5] concerns caspase-3. Nature of the experiment: Active caspase-3 immunostaining in gonadal tumor sections of inh-KO mice. The class given is in vivo, mouse. The settings on record: ovarian and testicular tissue sections of inh-KO mice, regions of residual tumor cells; FIG. 9. Here is the method: as §1
(§4) Zinc-formalin fixed paraffin tumor tissue sections of 4 μm in thickness were prepared. The sections were subjected to antigen retrieval by microwave 3 min in Unmask solution (Vector H-3300) followed by incubation in 10 μg/ml Proteinase-K for 20 min and in 1% H2O2 in dH2O for 10 min at room temperature. The sections were further incubated in 0.1% Tween-20 in PBS for 3 min to permeabilize the cell membrane and in goat serum for 30 min to block non-specific binding. The sections were then incubated at room temperature with specific primary antibody for 3 hours followed by incubation in biotinylated or fluorescently labeled secondary antibody. Substrate developed in Vector SG kit (SK-4700) or DAB and nuclear-counterstained in Vector Fast Red (H-3403) or in hematoxylin. The immunostained tissue sections were analyzed and photographed using a Nikon Eclipse 90i microscope equipped with DS-Ril camera. […]

Experiment [6] has as its system TOV-21G cells. Nature of the experiment: In vitro proliferation assay of TOV-21G cells (IncuCyte). The experiment is classed as cell-based, human. Conditions: increasing concentrations; FIG. 14. The method, then: In vitro growth rates of TOV-21G cancer cells were analyzed by using a real-time live cell imaging system (IncuCyte) following the manufacturer's recommended protocol.

Experiment [7] relates to VEGF. In words: VEGF immunostaining in TOV-21G xenograft tumor sections. The class given is in vivo, mouse. Conditions: treated vs untreated sections (strong immunostaining); FIG. 15A. The method, then: (§5) 5×10^6 TOV-21G ovarian cancer cells were implanted subcutaneously into individual female athymic nu/nu mice (Harlan). Treatment was initiated at day 12 after tumor implantation, when the average tumor volume reached approximately 150 mm^3. The mice received PBS, sActRIIB (30 mg/kg, SC, 1×/week) or activin-A antibody (30 mg/kg, SC, 2×/week). In a separate chemotherapy combination experiment, the mice were treated with PBS, sActRIIB (10 mg/kg, SC, 1×/week), 5-FU (50 mg/kg, IP, 3 cycles, 4 daily injections per cycle) or sActRIIB and 5-FU combination at the same doses above.
as §4, with “Substrate developed in Vector SG kit (SK-4700) or DAB and nuclear-counterstained in Vector Fast Red (H-3403) or in hematoxylin.” left out

For experiment [8], the system named is CD31. Nature of the experiment: CD31 immunostaining in TOV-21G xenograft tumor sections. The experiment is classed as in vivo, mouse. The settings on record: FIG. 15B. The method, then:
as §5
as §4, with “Substrate developed in Vector SG kit (SK-4700) or DAB and nuclear-counterstained in Vector Fast Red (H-3403) or in hematoxylin.” left out

Experiment [9] relates to caspase-3. In words: Active caspase-3 immunostaining in TOV-21G xenograft tumor sections. The class given is in vivo, mouse. The settings on record: FIG. 15C. Here is the method:
as §5
as §4, with “Substrate developed in Vector SG kit (SK-4700) or DAB and nuclear-counterstained in Vector Fast Red (H-3403) or in hematoxylin.” left out

In experiment [10] the test system is Ang-1 mRNA. Nature of the experiment: Ang-1 mRNA in cell cultures (real-time RT-PCR). The experiment is classed as cell-based, human, bovine. The settings on record: BAEC, MRC-5 and CCD-Lu cultures treated with recombinant activin-A, without or with sActRIIB; FIG. 16B. In general terms: Quantitative PCR measures a nucleic acid by following its amplification.
For experiment [11], the system named is Ang-1. In words: Ang-1 release into culture medium (ELISA). The class given is cell-based, human. The settings on record: MRC-5 and CCD-Lu cells treated with activin-A, without or with sActRIIB; FIG. 17B. Here is the method: The serum VEGF levels in inh-KO mice were measured by using immunoassay kit (R&D Systems), and the levels of human VEGF and Ang-1 in cell line culture medium were quantified using ELISA kits purchased from Invitrogen (VEGF) and R&D Systems (Ang-1), by following the manufacturers' recommended protocols.
For orientation: An ELISA detects its analyte on a solid surface through an enzyme-linked reagent.

Experiment [12] has as its system G361 human melanoma xenografts. In words: G361 human melanoma xenograft growth in nude mice. The experiment is classed as in vivo. Conditions: sActRIIB 20 mg/kg SC 1x/week from day 14, FIG. 19. Here is the method:
5×10^6 G361 melanoma cells and 5637 bladder carcinoma cells, respectively, were inoculated SC into individual athymic nu/nu mice (Harlan Inc). Treatment was initiated 4 days after 5637 implantation and 14 days after G361 implantation, when the tumor volumes reached 130 mm^3−150 mm^3 5637-implanted mice received PBS or activin-A antibody (10 mg/kg, SC, 2×/week). G361-implanted mice received PBS or sActRIIB (20 mg/kg, SC, 1×/week).
For all xenograft experiments, the tumor sizes were measured longitudinally by using an electronic caliper Immediately prior to the 1st dose, the tumor-bearing mice were randomized to ensure even distribution in tumor sizes across different groups. Tumor volumes (mm^3) were calculated as tumor length (mm)×tumor width (mm)×tumor height (mm) Tumor weights were determined by necropsy.

B1: sActRIIB: extracellular domain of human activin type-2B receptor fused to IgG2 Fc, expressed in CHO cells; sequence in the 26th table (protein)
chain: ETRWCIYYNANWELERTNQGLERCEGEQDKRLHCYASWRNSSGTIELVKKGCWLDDFNCYDRQECVATEENPQVYFCCCEGNFCNERFTHLPEAGGPEVTYEPPPTAPTGGGGSVECPPCPAPPVAGPSVFLFPPKPKDTLMISRTPEVTCVVVDVSHEDPEVQFNWYVDGVEVHNAKTKPREEQFNSTFRVVSVLTVVHQDWLNGKEYKCKVSNKGLPAPIEKTISKTKGQPREPQVYTLPPSREEMTKNQVSLTCLVKGFYPSDIAVEWESNGQPENNYKTTPPMLDSDGSFFLYSKLTVDKSRWQQGNVFSCSVMHEALHNHYTQKSLSLSPGK
modifications: left off: a dimerising Fc or GST
For B1, the “βA transcripts in the tumors (Northern blot)” value in experiment [1] is listed as “completely blocked”. In [2], the “Ang-2 mRNA expression (Northern blot)” value is “inhibited its overexpression”. Further, the “endoglin induction (Western blot)” value in experiment [3] is “abolished completely”. The “osteopontin induction (Western blot)” value in experiment [4] was “abolished completely”. The “active caspase-3 immunostaining” value in [5] was “strong immunostaining of active caspase-3”. Moreover, in [6], the “TOV-21G cell proliferation in vitro” value is “no direct effect”. The “VEGF immunostaining in TOV-21G tumor sections” value in [7] is “virtually none”. In addition, in experiment [8], the “CD31 immunostaining (newly formed microvessels) in TOV-21G tumor sections” value is reported as “lack of such new microvessels”. Besides, in [9], the “active caspase-3 in TOV-21G tumors” value is “profound increases”. In experiment [10], the “levels of Ang-1 mRNA” value was “prevented this induction”. Further, the “release of Ang-1 into the culture medium” value in [11] is “blocked completely”. In [12], the “growth rates and sizes of G361 melanoma xenografts” value is “significantly decreased the growth rates and sizes”.

The values are drawn from patent US20140220033A1, “Administration of an Anti-Activin-A Compound to a Subject” (Santa Maria Biotherapeutics, Inc., priority 2013, published 2014).
